# Measured values published in patent US20230235054A1 (BIOATLA, published 2023).
# Residue numbers refer to the chain shown, from its start.
# T1: recombinant human Nectin4 antigen (human, UniProt Q96NY8 32-349)
# T1 construct: construct not described
# T1 sequence (looked up): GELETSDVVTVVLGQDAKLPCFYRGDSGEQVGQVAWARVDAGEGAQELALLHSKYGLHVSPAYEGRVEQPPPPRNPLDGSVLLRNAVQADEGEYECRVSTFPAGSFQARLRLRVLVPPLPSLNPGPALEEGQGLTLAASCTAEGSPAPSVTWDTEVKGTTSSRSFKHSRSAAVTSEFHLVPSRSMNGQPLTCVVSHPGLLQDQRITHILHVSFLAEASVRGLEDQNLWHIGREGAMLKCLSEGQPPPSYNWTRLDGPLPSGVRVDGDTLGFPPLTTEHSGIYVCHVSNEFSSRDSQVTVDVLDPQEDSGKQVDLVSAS
# T2: cynoNectin4 antigen (cynomolgus (cyno), UniProt A0A2K5WES1 32-349)
# T2 construct: construct not described; also called cynomolgus (cyno) Nectin-4
# T2 sequence: T1 sequence (looked up) with V39A, I230V
# T3: huNectin4-His (human, UniProt Q96NY8 32-349)
# T3 construct: Immobilized on the SPR chip; also called humanNectin4; human Nectin4; not shown: His tag
# T3 sequence (looked up): T1 sequence (looked up)
# B1: BAP-143-06-24-16 (antibody, V domains shown)
# VH: EVQLVQSGAEVKKPGATVKISCKVSGFTFSSYNMNWIRQSPSRGLEWLGYISSSSSTIYYADSVKGRFTISRDNSKNTLYLQMNSLRAEDTAVYYCARAYYYGDDVWGQGTLVTVSS
# VL: DIQMTQSPSSVSASVGDRVTITCHASQGISGWLAWYQQKPGKAPKFLIYAASTLQSGVPSRFSGSGSGTDFTLTISSLQPEDFATYYCQQANSFPPTFGGGTKVEIK
# notes: Used as a conjugate with a linker payload (CAB ADC)
# B2: BAP-143-00-04 (antibody, V domains shown)
# VH: EVQLVESGGGLVQPGGSLRLSCAASGFTFSSYNDNWVRQAPGKGLEWVSYISSSSSTIYYADSVKGRFTISRDNAKNSLSLQMNSLRDEDTAVYYCARAYYYGMDVWGQGTTVTVSS
# VL: B1 VL with H24R
# notes: as for B1
# B3: BAP-143-00-03 (antibody, V domains shown)
# VH: B2 VH with D34M
# VL: B1 VL with H24R, P96D
# notes: as for B1
# B4: BAP-143-00-06 (antibody, V domains shown)
# VH: B2 VH with D34M, M104D
# VL: B1 VL with H24R
# notes: as for B1
# B5: BAP-143-00-05 (antibody, V domains shown)
# VH: B2 VH with D34M, R98E
# VL: B1 VL with H24R
# notes: as for B1
# B6: BAP-143-06-33-03 (antibody, V domains shown)
# VH: QVQLVQSGAEVKKPGASVKVSCKASGFTFSSYNMNWVRQARGQRLEWIGYISSSSSTIYYADSVKGRFTISRDNSKNTLYLQMNSLRAEDTAVYYCARAYYYGMDKWGQGTLVTVSS
# VL: B1 VL with H24R, F94E
# notes: as for B1
# B7: BAP-143-07-03-12 (antibody, V domains shown)
# VH: B2 VH with D34M, V106K
# VL: B1 VL with H24R, L33E
# notes: as for B1
# B8: BAP-143-wildtype (antibody, V domains shown)
# VH: B2 VH with D34M
# VL: B1 VL with H24R
# notes: 150 kDa used in SPR; also called BAP143-00-00; benchmark (BM)
# B9: BAP-143-06-33-16 (antibody, V domains shown)
# VH: B1 VH
# VL: B1 VL with H24R, L33E
# notes: as for B1
# B10: BAP-143-00-01 (antibody, V domains shown)
# VH: B2 VH with D34M
# VL: B1 VL with H24R, L33E
# notes: as for B1
# Target: T1, recombinant human Nectin4 antigen
# Experiment: ELISA, ratio of EC50s
# Method: (§1) 1) Coat ELISA plates with 100 μL of 1 μg/mL recombinant human Nectin4 antigen or cynoNectin4 antigen in carbonate-bicarbonate coating buffer. […] 2) Cover plates with sealing film and incubate overnight at 4° C. [0444] 3) Decant plates and tap out residual liquid on a stack of paper towels. [0445] 4) Wash wells twice by dispensing 200 μL of pH 6.0 or pH 7.4 ELISA incubation buffer to the wells and completely aspirate the contents. [0446] 5) Add 200 μL of pH 6.0 or pH 7.4 ELISA incubation buffer to the wells. Cover with sealing film and place the plate onto a plate shaker set to 50 rpm for 60 minutes at room temperature. [0447] 6) Decant plates and tap out residual liquid on a stack of paper towels. […] 7) Serially dilute test articles in 3-fold dilutions starting at 3000 ng/mL in pH 6.0 or pH 7.4 ELISA incubation buffer. […] 8) Add 100 μL/well of diluted test articles to the plates [0450] 9) Cover with sealing film and place the plates onto a plate shaker set to 50 rpm for 60 minutes at room temperature. [0451] 10) Decant plates and tap out residual liquid on a stack of paper towels. [0452] 11) Wash wells three times by dispensing 200 μL of pH 6.0 or pH 7.4 ELISA wash buffer to the wells and completely aspirate the contents. […] 12) Dilute the HRP secondary antibody at 1:2500 in pH 6.0 or pH 7.4 ELISA incubation buffer. [0454] […] 14) Cover with sealing film and place the plates onto a plate shaker set to 50 rpm for 60 minutes at room temperature. […] 15) Decant plates and tap out residual liquid on a stack of paper towels. […] 16) Wash wells three times by dispensing 200 μL of pH 6.0 or pH 7.4 ELISA wash buffer to the wells and completely aspirate the contents. [0458] 17) Dispense 50 μL per well of the TMB substrate solution into all wells of the plates.
Binder,EC50 ratio pH 7.4/6.0,EC50 ratio pH 7.4/pH 6.0
B1,3.63,–
B2,–,2.37
B3,–,7.13
B4,–,2.83
B5,–,3.2

# Target: T2, cynoNectin4 antigen
# Experiment: ELISA, ratio of EC50s
# Method: as §1
row,Binder,EC50 ratio pH 7.4/6.0
1,B6,1.83
2,B1,1.08
3,B7,3.6

# Target: T2, cynoNectin4 antigen
# Experiment: ELISA, coated antigen, PSB pH 6.0
# Method: as §1
row,Binder,EC50
1,B8,0.0146 mg/L
2,B6,0.0395 mg/L
3,B1,0.0261 mg/L
4,B9,0.0384 mg/L
5,B7,0.0239 mg/L

# Target: T1, recombinant human Nectin4 antigen
# Experiment: ELISA, coated antigen, PSB pH 6.0
# Method: as §1
row,Binder,EC50
1,B8,0.0216 mg/L
2,B6,0.0575 mg/L
3,B1,0.0368 mg/L
4,B9,0.0669 mg/L
5,B7,0.0533 mg/L

# Target: T3, huNectin4-His
# Experiment: SPR, huNectin4-His immobilized, pH 6.0
# Method: Binding kinetics of anti-Nectin4 antibodies were measured by surface plasmon resonance using a SPR2/4 instrument (Sierra Sensors, Hamburg, Germany) and flat amine sensor chips. The SPR sensor contained four flow cells (FC1-FC4), each of which was addressed individually or in groups. huNectin4-His was immobilized in FC2, and cynoNectin4-mFc in FC4. No protein was immobilized in FC1 and FC3 which were used as control surfaces for FC2 and FC4, respectively.
# All injections were done at a flow rate of 25 μL/min at 25° C. The sensor surface was activated with 1-ethyl-3-(3-dimethylaminopropyl)-carbodiimide (EDC) and N-hydroxysuccinimide (NHS) (200 mM/50 mM) for 480 seconds. HuNectin4-His (2 μg/mL in 10 mM NaAc, pH4.5) was injected for 480s and the surface was inactivated by injecting 1M ethanolamine-HCl for 480s. CynoNectin4 was immobilized using the same conditions as described for huNectin4-His, except that the cynoNectin4 was diluted into 10 mM NaAc buffer having pH 5.0. The control surface was activated and deactivated using the same conditions, but without injecting protein. PBST buffer (PBS pH 7.4 with 0.05% TWEEN20™) was used as running buffer for the surface preparation. The running solution was switched to PBST with 30 mM sodium bicarbonate with the pH adjusted as indicated in the figures before the analyte injections. The instrument was equilibrated with the running solution for one hour before the first analyte injection.
# The off-rate was measured for 360s. The chip surface was regenerated after each cycle of interaction analysis by injecting 6 μL of 10 mM glycine (pH 2.0). Flow cells 1 and 3 without immobilized protein were used as control surfaces for reference subtraction.
Binder,Kd,koff,kon
B8,0.149 nM,–,–
B1,0.0944 nM,0.00033 s⁻¹,3.5e+06 M⁻¹ s⁻¹
B9,0.11 nM,0.000195 s⁻¹,1.77e+06 M⁻¹ s⁻¹
B7,0.69 nM,0.000869 s⁻¹,1.26e+06 M⁻¹ s⁻¹
B10,0.739 nM,0.000771 s⁻¹,1.04e+06 M⁻¹ s⁻¹
